# Patent US20250215091A1, “Anti-GAL3 Antibodies and Compositions” (Les Laboratoires Servier, priority 2022, published 2025)
# B1: H10: anti-Gal3 monoclonal antibody, IgG1 format; VH SEQ ID NO 44, VL SEQ ID NO 45 (antibody, V domains shown)
# VH: EVQLVESGGSLVKPGGSLRLSCAASGFTFSNYYMNWVRQAPGKGLEWISYINGASRDISYADFVKGRFTISRDNAKNSLYLQMNSLRAEDTAVYYCVRSSYGYSNYGSGMDVWGRGTLVTVSS
# VL: QSVLTQPASVSGSPGQSITISCAGTSSDVGGSYNVAWYQQHPGKAPKLMIYNDANRPSGVSNRFSGSKSGNTASLTISGLQAEDEADYYCSSNTADSTRVFGGGTKLEIK
# Assays:
# [1] = system: murine model of HOCI-induced fibrosis; assay: HOCI-induced murine fibrosis model: skin thickness; assay type: in vivo, mice; settings: second experiment, sustained effect until day 63
# Method: In a first experiment, control mice (n=12) received a daily intradermal injection of 300 μL of sterile phosphate buffer saline (PBS) for 5 consecutive days per week, for a duration of 42 days. HOCI alone and HOCI with antibody (HOCI-antibody) treated mice (n=12 per group) received a daily intradermal injection of 300 μL of HOCI for 5 consecutive days per week, for a duration of 42 days. Antibody-treated mice also received a subcutaneous injection of 20 mg/kg antibody, starting at day minus one and every 5 days between day 5 and day 40. Each antibody was solubilized in sterile, endotoxin-free PBS before injection. In a second experiment, the same protocol was applied, except that duration of the study was 63 days and antibodies were given every 7 days starting at day minus 1 until day 62.
# Mice that received daily injection of HOCI were also treated by intratracheal instillation of 0.5 mg/kg of TD139 compound (HOCI-TD139), a small molecule Gal3 inhibitor. In a first experiment, the administrations started from day 21 and the compound was given every 3 days until day 39. In a second experiment, the administrations started from day 20 and the compound was given every 3 days until day 62. TD139 was initially dissolved in 100% DMSO then diluted 50-fold in endotoxin-free PBS before administration.
# The evolution of skin thickness was monitored by using an external caliper, every seven days until sacrifice.
# rat model of ARDS [2] = assay: Rat ARDS model (LPS challenge): neutrophils counts in BALF; assay type: in vivo; settings: antibodies 14 mg/kg x3 prior to LPS; dexamethasone 10 mg/kg oral; vs LPS group; FIG. 16
# Method: (§1) Positive control rats received 3 doses of sterile phosphate buffer at day minus 11, minus 6 and minus 1 prior LPS challenge (0.25 mg/kg by subcutaneous route at day 1). Negative control rats received one oral dose of Dexamethasone at 10 mg/kg (dissolved in 0.5% carboxymethyl cellulose in deionized water) 2 hours prior LPS challenge (0.25 mg/kg by subcutaneous route at day 1). LPS (lipopolysaccharide) causes an acute inflammatory response, whereas dexamethasone has anti-inflammatory effects thus being the reference treatment in this model.
# (§2) Antibody-treated rats received 3 doses of antibodies (14 mg/kg) at day minus 11, minus 6 and minus 1 prior to LPS challenge (0.25 mg/kg by subcutaneous route at day 1). Each antibody was solubilized in sterile PBS before injection.
# (§3) Control rats of the experiment received 3 doses of sterile phosphate buffer at day minus 11, minus 6 and minus 1 without LPS challenge at day 1.
# (§4) The impact of anti-Gal3 antibody treatment in LPS challenged rats were evaluated by quantification of neutrophils in Bronchoalveolar Lavage Fluid and compared to the positive control group (LPS challenge with PBS treatment) (FIG. 16). […] Neutrophils numeration levels were decreased after treatment with anti-inflammatory dexamethasone.
# rat model of ARDS [3] = assay: Rat ARDS model (LPS challenge): total BALF protein (BCA assay); assay type: in vivo; settings: antibodies 14 mg/kg x3 prior to LPS; dexamethasone 10 mg/kg oral; vs LPS group; FIG. 17
# Method: as §1, §2, §3
# as §4, with “proteins (by BCA assay)” for “neutrophils”, “BALF” for “Bronchoalveolar Lavage Fluid”, “17). The presence of protein in BALF reflects the damage to the air-blood barrier.” for “16).”, “Total BALF protein” for “Neutrophils”
# plasma TNF alpha = assay: Rat ARDS model (LPS challenge): plasma TNF alpha (MSD); assay type: in vivo; settings: 4 h following LPS challenge; vs LPS group; FIG. 18
# Method: as §1, §2, §3
# For all rats, plasma sampling was performed 4 h following LPS challenge.
# The impact of anti-Gal3 antibody treatment in LPS challenged rats were evaluated on plasma cytokine levels, namely TNF alpha and KC-GRO cytokines, and compared to the positive control group (LPS challenge with PBS treatment) (respectively FIG. 18A and FIG. 18B). TNF alpha and KC-GRO were quantified by using the MSD technology from Mesoscale.
molecule,measurement,setting,value
B1,HOCI-induced increase in skin thickness,"[1]; 63 days, antibody 20 mg/kg s.c. every 7 days, FIG. 7B",significantly reduced
same,day from which reduction of skin thickness was significant,[1],14 days
same,neutrophils counts in BALF,rat model of ARDS [2],also decreased
same,total BALF protein,rat model of ARDS [3],also decreased
same,TNF alpha plasma levels,plasma TNF alpha,"also decreased, displaying an intermediary profile"
